{
  "source": "patent US20160340421A1",
  "key": {"[1]": {"molecular_target": "hGDF11 homodimer (human) (UniProt O95390)", "sequence (O95390 299-407 limits assumed)": "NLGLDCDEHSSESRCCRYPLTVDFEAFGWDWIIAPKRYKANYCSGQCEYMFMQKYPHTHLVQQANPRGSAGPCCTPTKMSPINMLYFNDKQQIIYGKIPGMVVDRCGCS", "test": "cell-based or functional assay"}, "[2]": {"molecular_target": "GDF8/TGFβ[48-72] chimera (T48): GDF8.1-47.TGFβ1.49-76.GDF8.73-109 (human GDF8 with human TGFβ-1 sequence)", "sequence (chain, as listed by the source mutant limits assumed)": "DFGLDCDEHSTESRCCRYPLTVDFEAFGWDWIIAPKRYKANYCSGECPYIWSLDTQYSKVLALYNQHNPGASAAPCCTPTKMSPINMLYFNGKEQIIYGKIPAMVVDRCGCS", "test": "cell-based or functional assay"}, "[3]": {"molecular_target": "Human GDF8 homodimer (mature human Growth and Differentiation Factor-8) (human) (UniProt O14793)", "sequence (O14793 267-375)": "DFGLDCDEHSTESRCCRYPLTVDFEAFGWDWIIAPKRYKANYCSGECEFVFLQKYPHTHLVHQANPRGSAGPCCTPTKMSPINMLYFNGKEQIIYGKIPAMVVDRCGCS", "test": "cell-based or functional assay"}, "[4]": {"molecular_target": "hGDF11 homodimer (human) (UniProt O95390)", "test": "SPR Biacore T100, captured on anti-hFc, 25°C"}, "[5]": {"molecular_target": "Human GDF8 homodimer (mature human Growth and Differentiation Factor-8) (human) (UniProt O14793)", "test": "SPR Biacore T100, captured on anti-hFc, 25°C"}, "[6]": {"molecular_target": "hGDF11 homodimer (human) (UniProt O95390)", "test": "SPR, antibody captured, buffer without BSA"}, "[7]": {"molecular_target": "Human GDF8 homodimer (mature human Growth and Differentiation Factor-8) (human) (UniProt O14793)", "test": "SPR, antibody captured, buffer without BSA"}, "[8]": {"molecular_target": "hGDF11 homodimer (human) (UniProt O95390)", "test": "SPR, antibody captured, 25 nM antigen"}, "[9]": {"molecular_target": "Human GDF8 homodimer (mature human Growth and Differentiation Factor-8) (human) (UniProt O14793)", "test": "SPR, antibody captured, 25 nM antigen"}, "[10]": {"molecular_target": "hGDF11 homodimer (human) (UniProt O95390)", "test": "SPR Biacore T100, captured on anti-hFc, 37°C"}, "[11]": {"molecular_target": "Human GDF8 homodimer (mature human Growth and Differentiation Factor-8) (human) (UniProt O14793)", "test": "SPR Biacore T100, captured on anti-hFc, 37°C"}, "[12]": {"molecular_target": "Human GDF8 homodimer (mature human Growth and Differentiation Factor-8) (human) (UniProt O14793)", "test": "Luminex: hGDF8 beads with 1.25 µg/ml antibody, then Activin RIIB-mFc; MFI of bound Activin RIIB-mFc (n=3)"}},
  "data": [
    {"substance": "Control I: human anti-GDF8 antibody with the heavy and light chain variable regions of Myo29", "values": [
      {"measurement": "IC50, GDF11-inducible luciferase, A204/Smad2 cells, 0.8 nM GDF11", "setting": "[1]", "result": 0.94, "unit": "nM"},
      {"measurement": "IC50, luciferase bioassay, 0.4 nM GDF11", "setting": "[1]", "result": 0.255, "unit": "nM"},
      {"measurement": "IC50, luciferase bioassay, 0.8 nM GDF11", "setting": "[1]", "result": 0.459, "unit": "nM"},
      {"measurement": "approximate IC50, luciferase bioassay with GDF8/TGFβ[48-72] conditioned medium", "setting": "[2]", "result": 0.402, "unit": "nM"},
      {"measurement": "IC50, GDF8-inducible luciferase, A204/Smad2 cells, 0.8 nM GDF8", "setting": "[3]", "result": 0.62, "unit": "nM"},
      {"measurement": "IC50, luciferase bioassay, 0.5 nM GDF8", "setting": "[3]", "result": 0.172, "unit": "nM"},
      {"measurement": "IC50, luciferase bioassay, 1 nM GDF8", "setting": "[3]", "result": 0.398, "unit": "nM"},
      {"measurement": "Kd", "setting": "[4]", "result": 0.0146, "unit": "nM"},
      {"measurement": "T1/2", "setting": "[4]", "result": 221, "unit": "min"},
      {"measurement": "Kd", "setting": "[5]", "result": 0.0103, "unit": "nM"},
      {"measurement": "T1/2", "setting": "[5]", "result": 273, "unit": "min"},
      {"measurement": "Kd", "setting": "[6]", "result": 1, "unit": "pM"},
      {"measurement": "T1/2", "setting": "[6]", "result": 105, "unit": "min"},
      {"measurement": "Kd", "setting": "[7]", "result": 2, "unit": "pM"},
      {"measurement": "T1/2", "setting": "[7]", "result": 1300, "unit": "min"},
      {"measurement": "Kd", "setting": "[8]", "result": 0.08, "unit": "nM"},
      {"measurement": "T1/2", "setting": "[8]", "result": 136, "unit": "min"},
      {"measurement": "Kd", "setting": "[9]", "result": 0.05, "unit": "nM"},
      {"measurement": "T1/2", "setting": "[9]", "result": 191, "unit": "min"},
      {"measurement": "Kd", "setting": "[10]", "result": 0.0274, "unit": "nM"},
      {"measurement": "T1/2", "setting": "[10]", "result": 56, "unit": "min"},
      {"measurement": "Kd", "setting": "[11]", "result": 0.0244, "unit": "nM"},
      {"measurement": "T1/2", "setting": "[11]", "result": 70, "unit": "min"},
      {"measurement": "MFI", "setting": "[12]", "result": 58}
    ]},
    {"substance": "Negative Control (Table 11)", "values": [
      {"measurement": "MFI", "setting": "[12]", "result": 4560}
    ]}
  ]
}
